Substitutions are numbered along the chain they refer to. Values joined by “and” are separate entries in the source; they are usually repeats but may differ in a detail not shown here. Identical values can stand only once.

The labels stand for the following.
T1: βCAT_(CTERM), β-catenin residues 666-781 (human, UniProt P35222 666-781)
T1 sequence (looked up): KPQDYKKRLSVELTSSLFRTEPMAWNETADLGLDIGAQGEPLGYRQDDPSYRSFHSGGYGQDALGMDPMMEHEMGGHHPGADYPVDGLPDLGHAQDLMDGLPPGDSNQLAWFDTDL

T2: βCAT_(CTERM) D761A (human, UniProt P35222 666-781, D761A)
T2 sequence (looked up): T1 sequence (looked up) with D96A

T3: βCAT_(CTERM) D764A (human, UniProt P35222 666-781, D764A)
T3 sequence (looked up): T1 sequence (looked up) with D99A

T4: βCAT_(CTERM) F777A (human, UniProt P35222 666-781, F777A)
T4 sequence (looked up): T1 sequence (looked up) with F112A

T5: βCAT_(CTERM) D751A (human, UniProt P35222 666-781, D751A)
T5 sequence (looked up): T1 sequence (looked up) with D86A

B1: TAZ2 domain of p300 (residues 1723-1812 with four stabilizing mutations) (domain or fragment, UniProt Q09472 1723-1812, looked up)
chain: ATQSPGDSRRLSIQRAIQSLVHAAQCRNANCSLPSCQKMKRVVQHTKGCKRKTNGGCPICKQLIALAAYHAKHCQENKCPVPFCLNIKQK
B2: TAZ1 domain of CBP (residues 346-440) (domain or fragment)
chain: not shown
B3: βCAT_(TAD2), β-catenin residues 730-781 (domain or fragment, human, UniProt P35222 730-781, looked up)
chain: GMDPMMEHEMGGHHPGADYPVDGLPDLGHAQDLMDGLPPGDSNQLAWFDTDL

Common to all, as to experiment: ITC
In general terms: ITC needs no label: the signal is the heat of the interaction.

Test [1] deals with B2.
The target in test [2] is B3.
The target in test [3] is T1, βCAT_(CTERM), β-catenin residues 666-781.
Test [4] concerns the target T2, βCAT_(CTERM) D761A.
Test [5] addresses T3, βCAT_(CTERM) D764A.
Test [6] concerns the target T4, βCAT_(CTERM) F777A.
For test [7], the target named is T5, βCAT_(CTERM) D751A.

A word on the Kd: it is the free concentration of one partner at which half of the binding sites on the other are occupied at equilibrium, for simple one-to-one binding. A higher Kd goes with a looser complex. Turning to VDGLPDLGHAQDLMDGLPPGDSNQLAWFDTDL (peptide, UniProt P35222 750-781, looked up) [βCAT_(750-781), β-catenin residues 750-781], the affinity in test [1], expressed as Kd, was 2170 ± 70 nM.

As to B1, the “Kd2 (two-site fit)” value is 1.18 ± 0.43 µM in test [2] and 3.42 ± 0.2 µM in test [3].

With B2, the Kd is 600 nM and 390 nM in test [4]; 320 nM and 600 nM in test [5]; 550 nM and 320 nM in test [6]; 390 nM and 550 nM in test [7]. For the same molecule, in test [3], the “Kd2 (two-site fit)” value worked out at 0.65 ± 0.22 µM.

Take B3: the Kd in test [1] was found to be 380 ± 20 nM.
